The values that follow come from paper PMC5388391.

For data set [1], the target named is T1, KLF1 zinc finger domain (WT) (mouse (murine), UniProt P46099 243-358). The data set can be described thus: EMSA.
Data set [2] deals with T2, Nan-KLF1 zinc finger domain (mouse (murine), Nan mutant, UniProt P46099 243-358, E321D). The data set can be described thus: EMSA.
In data set [3] the target is T1, KLF1 zinc finger domain (WT). Description: fluorescence polarization.
Data set [4] has as its target T2, Nan-KLF1 zinc finger domain. The data set can be described thus: fluorescence polarization.

T2 sequence (P46099 243-358 E321D): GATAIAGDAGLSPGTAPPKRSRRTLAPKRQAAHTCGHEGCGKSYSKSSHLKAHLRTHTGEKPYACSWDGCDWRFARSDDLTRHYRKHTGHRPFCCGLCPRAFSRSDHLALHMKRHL
T1 sequence (P46099 243-358): as the sequence (P46099 243-358 E321D) above, with D79E counted along it

B1: beta-globin (Hbb promoter, Category II, TG) (dsDNA)
DNA 1: TAGAGCCACACCCTGGTAAG
DNA 2: CTTACCAGGGTGTGGCTCTA
Consider B1, for which the binding result in data set [1] is “binds”.

B2: Alas2 variant 3 (AG), EMSA (dsDNA)
DNA 1: TCTCTCCCACTCCCTGGGCTC
DNA 2: GAGCCCAGGGAGTGGGAGAGA
For the molecule B2, the binding result in data set [2] is listed as “binds”.

B3: Alas2_fp (CG) (dsDNA)
DNA 1: TTCTCTCCCACGCCCTGGGCTC
DNA 2: GAGCCCAGGGCGTGGGAGAGA
modifications: 5' fluorescein-dT (/5FluorT/) preceding S51, written as T
B3: the Kd in data set [3] was 150 nM; in data set [4] it was 130 nM.

B4: Alas2 variant 2 (CT), EMSA (dsDNA)
DNA 1: TCTCTCCCAAGCCCTGGGCTC
DNA 2: GAGCCCAGGGCTTGGGAGAGA
With B4, in data set [2], the binding result was “binds”.

B5: Alas2 variant 1 (CA), EMSA (dsDNA)
DNA 1: TCTCTCCCATGCCCTGGGCTC
DNA 2: GAGCCCAGGGCATGGGAGAGA
Consider B5, for which, in data set [2], the binding result is listed as “binds”.

B6: Alas2 (Category I, CG), EMSA (dsDNA)
DNA 1: TCTCTCCCACGCCCTGGGCTC
DNA 2: GAGCCCAGGGCGTGGGAGAGA
Turning to B6, the binding result in data set [1] and in data set [2] was “binds” throughout.
